# Earlier results, collected in article PMC6165679.
# Assays:
# [1] = biological target: APJ receptor (Homo sapiens) (UniProt P35414)
# [2] = biological target: APJ receptor (Homo sapiens) (UniProt P35414); assay: competition binding
# Chain of UniProt P35414 (P35414 whole entry): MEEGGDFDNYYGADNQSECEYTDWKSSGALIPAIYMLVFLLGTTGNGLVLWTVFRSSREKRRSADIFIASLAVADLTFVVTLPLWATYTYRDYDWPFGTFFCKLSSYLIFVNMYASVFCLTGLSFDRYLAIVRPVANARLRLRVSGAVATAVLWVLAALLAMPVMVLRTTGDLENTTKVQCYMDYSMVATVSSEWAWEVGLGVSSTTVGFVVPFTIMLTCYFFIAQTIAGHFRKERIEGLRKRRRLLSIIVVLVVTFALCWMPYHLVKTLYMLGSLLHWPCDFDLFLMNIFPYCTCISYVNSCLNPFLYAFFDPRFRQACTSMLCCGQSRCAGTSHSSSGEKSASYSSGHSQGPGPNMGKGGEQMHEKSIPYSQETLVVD
substance,measurement,setting,value
cyclo(1–6)CRPRLC-KH-cyclo(9–14)CRPRLC,Ki,[1],82 nM
same,Kd,[2],3200 nM
